Laboratory results from article doi:10.1101/2023.02.08.527602 (bioRxiv, 2023).

Biological target: Soluble SorCS2 (extracellular domain of SorCS2) (UniProt Q96PQ0 51-1078)
Experiment: SPR

Chain of Soluble SorCS2 (extracellular domain of SorCS2) (Q96PQ0 51-1078): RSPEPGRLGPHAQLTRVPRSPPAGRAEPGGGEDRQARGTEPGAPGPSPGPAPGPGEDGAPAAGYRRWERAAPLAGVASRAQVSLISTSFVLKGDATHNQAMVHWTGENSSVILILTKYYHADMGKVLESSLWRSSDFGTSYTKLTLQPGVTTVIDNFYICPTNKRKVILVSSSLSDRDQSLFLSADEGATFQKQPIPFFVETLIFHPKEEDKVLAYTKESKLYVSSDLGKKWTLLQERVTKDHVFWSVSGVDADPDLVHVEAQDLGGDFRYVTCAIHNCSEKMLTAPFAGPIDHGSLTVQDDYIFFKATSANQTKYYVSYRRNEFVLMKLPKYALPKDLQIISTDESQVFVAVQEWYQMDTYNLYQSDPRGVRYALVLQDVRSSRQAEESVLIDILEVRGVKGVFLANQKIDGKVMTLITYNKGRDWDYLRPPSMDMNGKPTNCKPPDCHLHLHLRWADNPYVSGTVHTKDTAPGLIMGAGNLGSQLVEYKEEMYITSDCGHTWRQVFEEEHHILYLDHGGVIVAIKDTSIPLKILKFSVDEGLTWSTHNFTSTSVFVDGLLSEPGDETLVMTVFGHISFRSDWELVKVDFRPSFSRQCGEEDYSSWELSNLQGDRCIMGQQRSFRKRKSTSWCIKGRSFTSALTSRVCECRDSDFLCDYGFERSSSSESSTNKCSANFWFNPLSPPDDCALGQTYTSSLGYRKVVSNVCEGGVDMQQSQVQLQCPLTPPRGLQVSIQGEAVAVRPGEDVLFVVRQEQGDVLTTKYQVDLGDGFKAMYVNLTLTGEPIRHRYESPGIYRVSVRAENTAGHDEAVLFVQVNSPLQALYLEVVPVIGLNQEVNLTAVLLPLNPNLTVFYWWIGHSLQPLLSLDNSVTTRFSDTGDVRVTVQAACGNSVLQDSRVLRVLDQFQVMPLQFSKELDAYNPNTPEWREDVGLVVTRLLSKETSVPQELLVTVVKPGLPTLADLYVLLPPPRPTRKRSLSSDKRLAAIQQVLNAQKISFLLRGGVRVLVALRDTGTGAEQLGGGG

Kd: ~3 nM
B1: human progranulin (hPGRN) used in SPR (ligand, UniProt P28799 18-593, looked up)
chain: TRCPDGQFCPVACCLDPGGASYSCCRPLLDKWPTTLSRHLGGPCQVDAHCSAGHSCIFTVSGTSSCCPFPEAVACGDGHHCCPRGFHCSADGRSCFQRSGNNSVGAIQCPDSQFECPDFSTCCVMVDGSWGCCPMPQASCCEDRVHCCPHGAFCDLVHTRCITPTGTHPLAKKLPAQRTNRAVALSSSVMCPDARSRCPDGSTCCELPSGKYGCCPMPNATCCSDHLHCCPQDTVCDLIQSKCLSKENATTDLLTKLPAHTVGDVKCDMEVSCPDGYTCCRLQSGAWGCCPFTQAVCCEDHIHCCPAGFTCDTQKGTCEQGPHQVPWMEKAPAHLSLPDPQALKRDVPCDNVSSCPSSDTCCQLTSGEWGCCPIPEAVCCSDHQHCCPQGYTCVAEGQCQRGSEIVAGLEKMPARRASLSHPRDIGCDQHTSCPVGQTCCPSLGGSWACCQLPHAVCCEDRQHCCPAGYTCNVKARSCEKEVVSAQPATFLARSPHVGVKDVECGEGHFCHDNQTCCRDNRQGWACCPYRQGVCCADRRHCCPAGFRCAARGTKCLRREAPRWDAPLRDPALRQLL
